Test results: patent US10202593B2, “Evolved sortases and uses thereof” (President and Fellows of Harvard College, priority 2013, dated 2019)
Where two headings read alike, the source gives them in different places.

Assays:
Type in all cases: biochemical
[1] = test system: LPETG (Abz-LPETGK(Dnp)-CONH2); experiment: In vitro sortase kinetics HPLC assay, LPETG substrate
Experimental: (§1) See below for details on sortase expression and purification, and on the synthesis of Abz-LPETGK(Dnp)-CONH2 (SEQ ID NO: 19). […] Reactions were initiated with the addition of enzyme and incubated at 22.5° C. for 3 to 20 minutes before quenching with 0.5 volumes of 1 M HCl. Five to ten nmol of peptide from the quenched reactions were injected onto an analytical reverse-phase Eclipse XDB-C18 HPLC column (4.6×150 mm, 5 μm, Agilent Technologies) and chromatographed using a gradient of 10 to 65% acetonitrile with 0.1% TFA in 0.1% aqueous TFA over 13 minutes. Retention times under these conditions for the Abz-LPETGK(Dnp)-CONH2 (SEQ ID NO: 19) substrate, the released GKDnp peptide, and the Abz-LPETGGG-COOH (SEQ ID NO: 20) product were 12.8, 10.4, and 9.1 min, respectively. To calculate the percent conversion, the ratio of the integrated areas of the Abz-LPETGGG-COOH (SEQ ID NO: 20) and Abz-LPETGK(Dnp)-CONH2 (SEQ ID NO: 19) peptide Abs220 peaks was compared to a standard curve generated by mixing the product and starting peptide in known ratios. To determine […] and Km, reaction rates were fit to the Michaelis-Menten equation using OriginPro 7.0 software. All kinetics values reported represent the average of at least three measurements. Percent conversion was also calculated by using the ratio of the integrated areas of the GK(Dnp)-CONH2 and Abz-LPETGK(Dnp)-CONH2 peptide Abs355 peaks were compared directly (Example 5). To determine kcat and Km, LPETG, reaction rates were fit to the Michaelis-Menten equation using Microsoft Excel using the Solver add-in. To determine Km,GGG and KH, reaction rates were fit to the modified Michaelis-Menten, for which KH is as defined when KH<<Km,GGG.
(§2) Assays to determine eSrtA, eSrtA(2A-9) and eSrtA(4S-9) specificity were performed by preparing 10 μM stocks of Abz-LXEXGK(Dnp) (SEQ ID NO: 75) peptides in 300 mM Tris pH 7.5, 150 mM NaCl, 5 mM CaCl2, 5% v/v DMSO, and 100 mM Gly-Gly-Gly-COOH (GGG). Reactions were performed by adding eSrtA(2A-9) to a final concentration of 450 nM, eSrtA(4S-9) to a final concentration of 115 nM or eSrtA to a final concentration of 47.5 nM and a final volume of 100 μL, then incubating at 22.5° C. for 15 minutes. Reactions were quenched by the addition of 0.2 volumes of 5 M HCl, then were injected onto an analytical reverse-phase Eclipse XDB-C18 HPLC column (4.6×150 mm, 5 μm, Agilent Technologies) and chromatographed using a gradient of 10 to 65% acetonitrile with 0.1% TFA in 0.1% aqueous TFA over 13 minutes. Retention times under these conditions for the Abz-LPETGK(Dnp)-CONH2 (SEQ ID NO: 19) substrate, the released GKDnp peptide, and the Abz-LPETGGG-COOH (SEQ ID NO: 20) product were 12.8, 10.4, and 9.1 min, respectively, while the remaining Abz-LXEXGK(Dnp)-CONH2 (SEQ ID NO: 74) substrates varied in retention time between 9 and 13 minutes. To calculate the percent conversion, the ratio of the integrated areas of the GK(Dnp)-CONH2 and Abz-LPETGK(Dnp)-CONH2 (SEQ ID NO: 19) peptide Abs355 peaks were compared directly. Subsequent determination of kcat/Km and KH were performed as described for in vitro SrtA characterization.
(§3) In each case, rate constants were determined by measuring enzyme velocity at eight different substrate concentrations by HPLC assay, then fit using nonlinear regression to the Michaelis-Menten equation, yielding kcat and Km. KH was calculated by measuring enzyme velocity at 1 mM target substrate and eight different GGG concentrations by HPLC assay, then fitting the resulting curves using nonlinear regression to the modified Michaelis-Menten equation.

[2] = test system: LPESG (Abz-LPESGK(Dnp)-CONH2); experiment: In vitro sortase kinetics HPLC assay, LPESG substrate; details: reversion of V182
Experimental: as §1, §2, §3

[3] = test system: LAETG (Abz-LAETGK(Dnp)-CONH2); experiment: In vitro sortase kinetics HPLC assay, LAETG substrate; details: for increase in kcat/Km for LAETG as compared to LPETG / increased affinity (KM) for the LAETG substrate as compared to the LPETG substrate: FIG. 1; for specificity (relative cat. Efficiency, fold): ratio of kcat/Km between 2A (LAETG) and wt (LPETG) substrates, favoured over disfavoured; for kcat, 1 mM LxExG (Hz) / kHydrolysis (Hz): GGG varied; for kHydrolysis (Hz): 1 mM
Experimental: as §1, §2, §3

[4] = substrate wt (LPETG), read-out: Km, LxExG
[5] = substrate 2A (LAETG), read-out: Km, LxExG
[6] = 1 mM 2A (LAETG) substrate, read-out: Km, GGG

Molecule	kcat, 10 mM GGG (Hz) ([1]; substrate wt (LPETG))	Km [1, 4]	specificity (relative cat. Efficiency, fold) [3]	kcat, 10 mM GGG (Hz) ([3]; substrate 2A (LAETG))	Km [3, 5]	Khydrolysis ([3]; 1 mM 2A (LAETG) substrate)	kcat, 1 mM LxExG (Hz) ([3]; 1 mM 2A (LAETG) substrate)	Km [3, 6]	kL/KL/KH ([3]; substrate 2A (LAETG))	kHydrolysis (Hz) ([3]; substrate 2A (LAETG))	further results
SrtA: wild-type Staphylococcus aureus sortase A (SEQ ID NO: 1) (protein, S. aureus) MKKWTNRLMTIAGVVLILVAAYLFAKPHIDNYLHDKDKDEKIEQYDKNVKEQASKDKKQQAKPQIPKDKSKVAGYIEIPDADIKEPVYPGPATPEQLNRGVSFAEENESLDDQNISIAGHTFIDRPNYQFTNLKAAKKGSMVYFKVGNETRKYKMTSIRDVKPTDVEVLDEQKGKDKQLTLITCDDYNEKTGVWEKRKIFVATEVK	1.221 Hz	5180 µM									KH ([1]; 1 mM LPETG): 14.3 ± 0.8 µM; KN ([1]; 1 mM LPETG, eight GGG concentrations): 14.3 ± 0.8 µM; Km ([1]; 1 mM LPETG, read-out: Km,GGG): 211 ± 8 µM; Khydrolysis ([1]; 1 mM wt (LPETG) substrate): 28.38 µM; kcat, 1 mM LxExG (Hz) ([1]; 1 mM wt (LPETG) substrate, GGG varied): 0.1731 Hz; Km ([1]; 1 mM wt (LPETG) substrate, read-out: Km, GGG): 291 µM; KH,LPETG ([1]; LPETG substrate): 14.3 ± 0.8 µM; Kcat (Hz) ([1]; Sub LPETG, 100 mM GGG): 1.5 ± 0.2 Hz; Km ([1]; Sub LPETG, 100 mM GGG, read-out: Km): 7600 ± 500 µM; Rel. Activity ([1]; Sub LPETG, kcat/Km of the enzyme's preferred substrate relative to kcat/Km on this substrate): 1; Kcat (Hz) ([1]; Table 2, Sub LPETG): 1.5 ± 0.2 Hz; Km ([1]; Table 2, Sub LPETG, read-out: Km): 7600 ± 500 µM; kL/KL/KH ([1]; substrate wt (LPETG)): 8.30E+06; kHydrolysis (Hz) ([1]; substrate wt (LPETG), 1 mM, GGG varied): 0.01657 Hz
eSrtA(4S-9) V182I (protein) QAKPQIPKDKSKVAGYIEIPDADIKEPVYPGPATREQLDRGVCFVEENESLDDQNISITGHTAIDRPNYQFTNLRAAKKGSMVYLKVGNETRKYKMTSIRNVKPTAVEVLDEQKGKDKQLTLITCDDYNFETGVWETRKIFVATEVK											selectivity and overall activity [2]: preserved selectivity but decreased overall activity
eSrtA(2A-4): 5mut + A104H K162R V168I I182V (protein) QAKPQIPKDKSKVAGYIEIPDADIKEPVYPGPATREQLNRGVSFHEENESLDDQNISIAGHTFIDRPNYQFTNLKAAKKGSMVYFKVGNETRKYKMTSIRNVRPTAVEILDEQKGKDKQLTLVTCDDYNEETGVWETRKIFVATEVK	0.09356 Hz	11700 µM	73.05 fold	1.901 Hz	3250 µM						Avg kcat (Hz) ([1]; Example 5 variants, substrate wt (LPETG)): 0.0501 Hz; Km ([1]; Example 5 variants, substrate wt (LPETG), read-out: Avg KM): 5180 µM; Avg kcat (Hz) ([3]; Example 5 variants, substrate 2A (LAETG)): 1.988 Hz; Km ([3]; Example 5 variants, substrate 2A (LAETG), read-out: Avg KM): 3720 µM; increase in kcat/Km for LAETG as compared to LPETG [3]: ~40 fold; preference for LAETG over LPETG ([3]; ratio of kcat/KM): 73 fold; Specificity (relative catalytic efficiency, fold) ([3]; ratio of kcat/KM between 2A (LAETG) and wt (LPETG)): 55.11 fold
2A.6B: 5mut + R99K A104H K138V D160K* K162R I182V (protein) QAKPQIPKDKSKVAGYIEIPDADIKEPVYPGPATREQLNKGVSFHEENESLDDQNISIAGHTFIDRPNYQFTNLKAAKVGSMVYFKVGNETRKYKMTSIRKVRPTAVEVLDEQKGKDKQLTLVTCDDYNEETGVWETRKIFVATEVK				0.6977 Hz	310 µM	12.49 µM	0.5359 Hz	642 µM	1.81E+08	0.01048 Hz	
2A.6C: 5mut + A104H K138P K152I D160K* K162R I182V (protein) QAKPQIPKDKSKVAGYIEIPDADIKEPVYPGPATREQLNRGVSFHEENESLDDQNISIAGHTFIDRPNYQFTNLKAAKPGSMVYFKVGNETRIYKMTSIRKVRPTAVEVLDEQKGKDKQLTLVTCDDYNEETGVWETRKIFVATEVK	0.07676 Hz	1980 µM	61.61 fold	0.8129 Hz	343 µM	12.49 µM	0.5359 Hz	642 µM	1.91E+08	0.01048 Hz	increased affinity (KM) for the LAETG substrate as compared to the LPETG substrate [3]: ~61 fold
eSrtA(2A-5): 5mut + R99H A104H K138I K162R I182V (protein) QAKPQIPKDKSKVAGYIEIPDADIKEPVYPGPATREQLNHGVSFHEENESLDDQNISIAGHTFIDRPNYQFTNLKAAKIGSMVYFKVGNETRKYKMTSIRNVRPTAVEVLDEQKGKDKQLTLVTCDDYNEETGVWETRKIFVATEVK	0.1375 Hz	4900 µM	115.7 fold	1.41 Hz	433 µM	615.9 µM	1.493 Hz	2810 µM	5.29E+06	0.324 Hz	increase in kcat/Km for LAETG as compared to LPETG [3]: ~125 fold; increased affinity (KM) for the LAETG substrate as compared to the LPETG substrate [3]: ~116 fold; KH ([3]; GGG concentration at which hydrolysis and transpeptidation rates are equal, unit not given): 731±235
eSrtA(2A-9) H104A (protein) QAKPQIPKDKSKVAGYIEIPDADIKEPVYPGPATREQLNRGVCFADENESLDDQNISIAGHTFIDRPNYQFTNLKAAKPGSMVYFKVGNETRIYKMTSIRKVHPNAVEVLDEQEGKDKQLTLVTCDDYNEETGVWESRKIFVATEVK											preference for LPETG over LAETG ([3]; ratio of kcat/KM): 60 fold
eSrtA(2A-9) V182I (protein) QAKPQIPKDKSKVAGYIEIPDADIKEPVYPGPATREQLNRGVCFHDENESLDDQNISIAGHTFIDRPNYQFTNLKAAKPGSMVYFKVGNETRIYKMTSIRKVHPNAVEVLDEQEGKDKQLTLITCDDYNEETGVWESRKIFVATEVK											preference for LAETG over LPETG ([3]; ratio of kcat/KM): 85 fold; activity level for LAETG ([3]; reversion of V182): lowers the activity level for LAETG
